According to the supplement of paper PMC9112550, “Optimization of the antimicrobial peptide Bac7 by deep mutational scanning” (BMC Biology, 2022):

Tested on: Escherichia coli TOP10
Assay: shrunken log2 fold change of peptide-encoding DNA abundance (4.5 h post-induction vs induction); higher = less antimicrobial activity (less host growth inhibition)
Details: time post-induction: 4.5 h; library: site-saturation at positions 5, 18, 19, 20
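Note: peptides expressed intracellularly from a pBAD plasmid library in pooled LB shake-flask culture, induced with 0.3% L-arabinose, DNA abundance read by NGS, three biological replicates, DESeq2 with apeglm shrinkage.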

Sequence	shrunken log2 fold change
RRIRQRPPRLPRPRPRPFFEPRP	0.0893
RRIRERPPRLPRPRPRPRTIPRP	-0.337
RRIRGRPPRLPRPRPRPMWVPRP	0.168
RRIRYRPPRLPRPRPRPPYQPRP	-0.369
RRIRRRPPRLPRPRPRPQEGPRP	-0.0768
RRIRQRPPRLPRPRPRPEFNPRP	-0.0823
RRIRIRPPRLPRPRPRPFCVPRP	-0.713
RRIRLRPPRLPRPRPRPDRDPRP	-0.154
RRIRWRPPRLPRPRPRPKRNPRP	0.432
RRIRNRPPRLPRPRPRPDCVPRP	-0.106
RRIRKRPPRLPRPRPRPGRFPRP	0.227
RRIRVRPPRLPRPRPRPHKLPRP	-0.317
RRIRPRPPRLPRPRPRPTVCPRP	0.149
RRIRIRPPRLPRPRPRPYAKPRP	-0.207
RRIRPRPPRLPRPRPRPRYYPRP	-0.385
RRIRQRPPRLPRPRPRPPSIPRP	-0.0422
RRIRVRPPRLPRPRPRPDIIPRP	-0.35
RRIRYRPPRLPRPRPRPEAYPRP	-0.185
RRIRGRPPRLPRPRPRPFPAPRP	0.757
RRIRFRPPRLPRPRPRPLKHPRP	-0.475
RRIRFRPPRLPRPRPRPTRTPRP	0.326
RRIRYRPPRLPRPRPRPQLNPRP	-1.15

Sequence	shrunken log2 fold change
RRIRFRPPRLPRPRPRPKSMPRP	0.102
RRIRARPPRLPRPRPRPRTCPRP	0.181
RRIRARPPRLPRPRPRPHTVPRP	-0.0287
RRIRCRPPRLPRPRPRPSYGPRP	-0.627
RRIRIRPPRLPRPRPRPSKIPRP	-0.441
RRIRTRPPRLPRPRPRPYMWPRP	-0.233
RRIRYRPPRLPRPRPRPPPQPRP	0.776
RRIRYRPPRLPRPRPRPICCPRP	-0.137
RRIRERPPRLPRPRPRPYEWPRP	-0.00963
RRIRFRPPRLPRPRPRPTHAPRP	0.207
RRIRWRPPRLPRPRPRPAMGPRP	0.161
RRIRERPPRLPRPRPRPQEPPRP	-0.0182
RRIRQRPPRLPRPRPRPFLYPRP	-0.615
RRIRVRPPRLPRPRPRPKCDPRP	0.0741
RRIRQRPPRLPRPRPRPAGVPRP	-0.102
RRIRSRPPRLPRPRPRPNDPPRP	-0.619
RRIRFRPPRLPRPRPRPCSDPRP	-0.119
RRIRHRPPRLPRPRPRPFQLPRP	-0.0386
RRIRCRPPRLPRPRPRPSFDPRP	-0.282
RRIRCRPPRLPRPRPRPPNDPRP	0.383
RRIRCRPPRLPRPRPRPKDEPRP	0.393
RRIRHRPPRLPRPRPRPNTRPRP	-0.28

Sequence	shrunken log2 fold change
RRIRRRPPRLPRPRPRPNPNPRP	0.369
RRIRSRPPRLPRPRPRPMQKPRP	-0.0221
RRIRPRPPRLPRPRPRPPCIPRP	0.00615
RRIRPRPPRLPRPRPRPTIGPRP	-0.128
RRIRKRPPRLPRPRPRPYAKPRP	-0.0729
RRIRFRPPRLPRPRPRPMPMPRP	-0.00868
RRIRMRPPRLPRPRPRPLTFPRP	-0.291
RRIRLRPPRLPRPRPRPHKRPRP	0.0273
RRIRQRPPRLPRPRPRPERYPRP	-0.0565
RRIRIRPPRLPRPRPRPQIRPRP	-0.64
RRIRTRPPRLPRPRPRPSMCPRP	-0.377
RRIRGRPPRLPRPRPRPCCVPRP	0.751
RRIRQRPPRLPRPRPRPTGFPRP	0.051
RRIRDRPPRLPRPRPRPDCFPRP	1.04
RRIRRRPPRLPRPRPRPYQAPRP	-0.303
RRIRWRPPRLPRPRPRPWALPRP	-0.158
RRIRVRPPRLPRPRPRPAYSPRP	-0.167
RRIRWRPPRLPRPRPRPESRPRP	0.323
RRIRERPPRLPRPRPRPGMHPRP	0.0491
RRIRLRPPRLPRPRPRPKGDPRP	0.182
RRIRTRPPRLPRPRPRPRNNPRP	-0.803
RRIRARPPRLPRPRPRPTLYPRP	-0.034
